Experimental data as given in patent publication US20260265383A1 (FUSION ANTIBODIES, published 2026).

T1: RAMP2 IMM ECD V1
T1 construct: The entry includes a signal peptide whose residues cannot be read (drawing); The text says 'RAMP2 ECD'; also called RAMP2 ECD
T1 chain: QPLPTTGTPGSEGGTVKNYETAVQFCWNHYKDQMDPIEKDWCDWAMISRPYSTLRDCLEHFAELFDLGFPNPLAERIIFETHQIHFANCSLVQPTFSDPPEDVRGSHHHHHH

T2: RAMP2 Scr V1
T2 construct: it is not part of the secreted protein; Expressed in HEK cells
T2 chain: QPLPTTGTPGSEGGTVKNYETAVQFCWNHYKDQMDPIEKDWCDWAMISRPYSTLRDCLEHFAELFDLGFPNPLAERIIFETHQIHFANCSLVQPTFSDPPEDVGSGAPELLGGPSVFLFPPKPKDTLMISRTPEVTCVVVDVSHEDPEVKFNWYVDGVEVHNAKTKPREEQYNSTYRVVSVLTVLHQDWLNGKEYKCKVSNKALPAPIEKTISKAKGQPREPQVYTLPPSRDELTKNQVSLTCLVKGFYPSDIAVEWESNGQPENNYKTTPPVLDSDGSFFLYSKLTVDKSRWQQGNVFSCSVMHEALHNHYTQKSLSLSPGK

T3: RAMP3_Scr_V1
T3 construct: Expressed in HEK cells
T3 chain: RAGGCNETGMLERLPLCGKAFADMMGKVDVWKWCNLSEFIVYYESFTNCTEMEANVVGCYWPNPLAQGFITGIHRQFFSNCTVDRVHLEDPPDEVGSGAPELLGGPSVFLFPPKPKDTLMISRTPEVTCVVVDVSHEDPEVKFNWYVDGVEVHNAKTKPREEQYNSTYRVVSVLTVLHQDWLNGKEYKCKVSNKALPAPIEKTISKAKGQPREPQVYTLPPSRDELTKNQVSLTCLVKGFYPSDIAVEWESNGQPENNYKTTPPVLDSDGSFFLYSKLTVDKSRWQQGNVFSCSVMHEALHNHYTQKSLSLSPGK


Columns and labels:
RAMP2 IMM ECD V1 = biological target: T1, RAMP2 IMM ECD V1; assay: direct ELISA, 6-well supernatants at 8-500 ng/ml on RAMP2 ECD coated at 1.0 µg/ml
Description: Immuno modules (Thermo Scientific™) were coated with RAMP2 ECD or RAMP3 Scr, 1.0 μg/ml in PBS, 100 μl/well, 20 h at 4° C. Supernatants of anti-RAMP2 and anti-RAMP3 rabbit IgG-κ1 antibody clones were transfered into wells at different concentrations (8-500 ng/ml; 100 μL/well, in PBS-0.05% Tween 20-1% BSA) and the plates were incubated for 60 min. on a shaker at room temperature (RT). Goat anti-rabbit-IgG HRP conjugate (Invitrogen; 1:20 000 in 1% BSA-PBS-0.05% Tween 20; 100 μL/well) was used as secondary reagent in direct ELISA (incubation time 60 min. at RT). To visualize, TMB substrate was added for 10 min. and stopped with 0.5 M H₂SO₄. Between every incubation step the wells were washed 4 times with PBS-Tween 20.

RAMP2 Scr V1 [1] = biological target: T2, RAMP2 Scr V1; assay: ELISA, 24-well supernatants on coated antigen
Description: (§1) Amplified VH and VL were purified and altogether 20 cloning reactions per target were performed for cloning into rabbit IgG-κ1 encoding two-cassette expression plasmid by using Ligase Independent Cloning (LIC) method. Resulting antibody library pools were grown in E. coli strain DH5a. Plasmid DNA was purified and transfected into CHOEBNALT85-1E9 cells for transient production of antibodies in serum-free media for 48 hours in 24-well format. Cell culture supernatants were tested for RAMP2 Scr and RAMP2 ECD or RAMP3 Scr binding in ELISA (wells coated at 1 μg/ml in PBS).

RAMP3_Scr_V1 [2] = biological target: T3, RAMP3_Scr_V1; assay: ELISA, single-clone supernatants on RAMP3 Scr
Description: (§2) 8 specific ELISA positive pools against both targets were selected for single clone isolation. Single clones were selected in LB-Amp solid medium, colonies were grown in liquid medium o/n on shaker at 37° C. in 96-well microtiter plates (2-4 96-well plates per target), plasmid DNA was isolated and transfected into CHOEBNALT85-1E9 cells for antibody transient production. 48-72 hours after transfection supernatants were analyzed by ELISA on RAMP2 Scr or RAMP3 Scr respectively.

RAMP3_Scr_V1 [3] = biological target: T3, RAMP3_Scr_V1; assay: ELISA, 24-well supernatants on coated RAMP3 Scr
Description: as §1

RAMP2 Scr V1 [4] = biological target: T2, RAMP2 Scr V1; assay: ELISA, single-clone supernatants on RAMP2 Scr
Description: as §2

titer (RAMP2 IMM ECD V1) [ng/mL] | binding result (RAMP2 Scr V1 [1]) | binding result (RAMP3_Scr_V1 [2]) | Binder | also measured
< 8 | binds |  | RAMP2-rIgG-k1-2A8 (antibody, V domains shown, tested as recombinant rabbit IgG-kappa1; also called rlgG-k1-2A8; 2A8_#12) VH: QSLEESGGGLVQPEGSLTLTCTASGFDLSRYYYIFWVRQAPGKGLEWIGCIYIGGNIITYYASWAKGRFTISKTSSPAVTLQMTSLTVADTATYFCARGTGYGGYGDVSLWGPGTLVTVSS VL: APVLTHTAASVSEPVGGIVTINCQASQSIGSNLAWYQQKSGQPPKLLIYDASNLVSGVPSRFKGSRSGTEYTLTISDLECADAGTYYCQGYYYGSSTSYNLVSFGGGTEVVVK | 
< 8 | binds |  | RAMP2-rIgG-k1-1H6#4 (antibody, V domains shown, tested as recombinant rabbit IgG-kappa1; also called rlgG-k1-1H6) VH: QEHLVESEGGLFKPTDTLTLTCTVSGFSLSSYGVSWVRQAPGKGLEWIGVIGATGSAYYANWAKSRSTITRNTNLNTVTLKVTSLTAADTATYFCARDDVLTGMDLWGPGTLVTVSS VL: APVLTQTPASVEAAVGGTVTIKCQASQSINSWLSWYQQKPGQPPKLLIYQASKLASGVPSRFKGSGSGTEYTLTISDLKCADAATYYCQSYDYASNSGYVSNPFGGGTEVVVK | 
 |  | binds | RAMP3-rIgG-k1-6B8 (antibody, V domains shown, tested as recombinant rabbit IgG-kappa1; also called rlgG-k1-6B8; 6B8_#24) VH: QSLEESGGGLVKPEGSLTLTCTASGFFFDRSYWICWVRQTPAKGLEWIACIVVSSGATYYASWAKGRLTLSKTSSTTVTLQMTSLTAADTAIYFCARDSSSTSGVEFNLWGPGTLVTVSS VL: DVMMTQTPASVSEPVGGTVTIKCQASQNIGNNLAWYQQKPGQPPKLLIYLTSTLASGVPSRFKGSRSGTEFTLTISDLECADAATYFCQSYLYTTYAFGGGTEVVVK | 
 |  | binds | RAMP3-rIgG-k1-6D8 (antibody, V domains shown, tested as recombinant rabbit IgG-kappa1; also called rlgG-k1-6D8; 6D8_#28) VH: QSVEESGGDLVRPEGSLTLTCTASGFSLSSSYWICWVRQAPGKGLEWIACIVSNTGTTYYASWAKGRLTLSKTSSTTVTLQMTSLTAADTATYFCARDNNSKSGVEFNLWGPGTLVTVSS VL: DVVMTQTPASVSEPVGGTVTIKCQASQNIGNNLAWYQQKPGHPPKLLIYLASTLASGVPSRFKGSRSGTEFTLTISDLECADAATYYCQSYLYTTYAFGGGTEVVVK | 
 |  |  | RAMP3-rIgG-k1-3A12 (antibody, V domains shown, tested as recombinant rabbit IgG-kappa1; also called rlgG-k1-3A12; 3A12_#17) VH: QEQLEESEGGLFKPTDTLTLTCTVSGFSLSSYGVSWVRQAPGNGLEYIGFIGKTGSAYYASWAKSRSTITRNTTLNTVTLKMTSLTVADTATYFCARLGPGSIYYFDIWGPGTLVTVSS VL: DPMLTQTPSSKSVPVGGTVTINCQSSESVYDNNWLAWFQQKPGQPPKRLIYSASTLASGVSSRFKGSGSGTQFTLTISDVQCDDAATYYCTGYKSRTTDEIAFGGGTEVVVK | binding result (RAMP3_Scr_V1 [3]): binds
< 8 | binds |  | RAMP2-rIgG-k1-2A6 (antibody, V domains shown, tested as recombinant rabbit IgG-kappa1; also called rlgG-k1-2A6; 2A6_#9) VH: QSVEESGGDLVKPGASLTLTCTASGFSFSSRYYMCWVRQAPGKGLEWIGCIFGGSSGNTHYASWAKGRFTIAKTSSTTVTLRMTSLTAADTATYSCVRSDAWGVNLWGPGTLVTVSS VL: DVVMTQTPASVEAAVGGTVTIKCQASQSISNLLAWYQQKPGQPPKRLIYGASNLESGVPSRFKGSGSGTQFTLTISDLECADAATYYCQCSYDGSSPNAFGGGTEVVVE | 
< 8 | binds |  | RAMP2-rIgG-k1-2H3 (antibody, V domains shown, tested as recombinant rabbit IgG-kappa1; also called rlgG-k1-2H3; 2H3_#13) VH: QSVEESGGDLVKPGASLTLTCTASGFSFSSRYYMCWVRQAPGKGLEWIACIFGGSSDNSYYARWAKGRFTISKTSSTTVTLRMTSLTAADTATYFCVRSDAWGVNLWGPGTLVTVSS VL: AAVMTQTPSPVSGVVGGTVTIKCQASQSIYGYFSWYQQKPGQPPKLLIYSASDLASGVPSRFKGSGSGTQFTLTISDLECADAATYYCQCSYDGSSPNAFGGGTEVVVK | 
< 8 | binds |  | RAMP2-rIgG-k1-1A10 (antibody, V domains shown, tested as recombinant rabbit IgG-kappa1; also called rlgG-k1-1A10; 1A10_#7) VH: QSLEESGGGLVQPEGSLTLTCTASGFSFSSSYYMCWVRQAPGKGLEWIGSIYTLSGSTAYASWAKGRFTISKTSSTTVTLQMTSLTAADTAMYFCARDSDGWGVSFNLWGPGTLVTVSS VL: AAVMTQTPSSLSAAVGGTVTIKCQASQSIRNQVSWYQQKPGQRPKLLIYRASTLESGVPSRFKGSGSGTDFTLTISDLECADAATYYCQCTYGSSSSNRYGNTFGGGTEVAVK | 
 |  | binds | RAMP3-rIgG-k1-6C2 (antibody, V domains shown, tested as recombinant rabbit IgG-kappa1; also called rlgG-k1-6C2; 6C2_#25) VH: QEQLEESEGGLFKPTDTLTLTCTVSGFSLSVYALTWVRQAPGNGLEWIGAIGNSGNTYYASWAKSRSTITRNTNENTVTLKMTSLTAADTATYFCARGYVRINVWGPGTLVTVSS VL: DGVMTQTPSSVSAAVGGTVTISCQSSQSVYKNNYLSWFQQKPGQPPKLLIYEISKLESGVPDRFSGSGSGTQFTLTISGVQCDDAATYYCLGGYDDDSDTSFGGGTEVVVK | 
< 8 |  |  | RAMP2-rIgG-k1-1A7#1 (antibody, V domains shown, tested as recombinant rabbit IgG-kappa1 made in CHOEBNALT85-1E9 cells (supernatant); also called rlgG-k1-1A7) VH: QSVEESGGDLVKPEGSLTLTCTASGFSFSISYWICWVRQTPGKGLEWIGCIYGGSSGRPYYASWAKGRFTISKTSSTTVTLQMTSLTAADTAAYFCATTAYGGYGYGTWGPGTLVTVSS VL: DGVMTQTPSSVSAAVGSTVTISCQASQSVFSNNYLSWYQQKPGQPPKLLIYTASSLASGVPSRFKGSGSGTQFTLTISDLECADAATYYCQCTYGKSGTDTYLNAFGGGTEVVVK | binding result (RAMP2 Scr V1 [4]): binds
< 8 | binds |  | RAMP2-rIgG-k1-1H7 (antibody, V domains shown, tested as recombinant rabbit IgG-kappa1; also called rlgG-k1-1H7; 1H7_#5) VH: QSLEESGGDLVKPEGSLTLTCTASGFSFSISYWICWVRQTPGKGLEWIGCIYGGSSGRPYYASWAKGRFTISKTSSTTVTLQMTSLTAADTAAYFCATTAYGGYGYGTWGPGTLVTVSS VL: AAVLTQTPSSTSGPVGGTVTIKCQASQNIGSFLSWYQQKPGQPPKLLIYSASSLATGVPSRFSGSGSGTQFTLTISGVQCDDAATYYCLGFYAYRSDDGTAFGGGTEVVVK | 
 |  | binds | RAMP3-rIgG-k1-5H9 (antibody, V domains shown, tested as recombinant rabbit IgG-kappa1; also called rlgG-k1-5H9; H9_#22) VH: QSLEESEGGLFKPTDTLTVTCIVSGLSLSRNAMSWVRQAPGSGLEWIGVIVTYGDTYYASWAKSRSTITRNTNENTVTLKMTSLTAADTATYFCIGGLDIWGPGTLVTVSS VL: DVVMTQTPASVEAAVGGTVTIKCQATESIASWLAWYQQKAGQPPKLLIYEASKLESGVPSRFKGSGSGTEFTLTISDLECADAATYYCQSYLYSSSNTYGNSFGGGTEVVVK | 
 |  | binds | RAMP3-rIgG-k1-4C10 (antibody, V domains shown, tested as recombinant rabbit IgG-kappa1; also called rlgG-k1-4C10; 4C10_#19) VH: QEQLEESGGGLVKPTDTLTLTCTVSGFSLSTNSIFWVRQAPGNGLEWIGAISYAGGTAYASWAKSRSTITRNTNLNTVTLKMTSLTAADTATYFCGRGYVGYSRSKGDIWGPGTLVTVSS VL: DGVMTQTPSSTSAAVGSTVTISCQSTQSIINNNWLAWYQQKPGHSPKLLIYDASTLASGVPSRFSGSGSGTQFTLTISDLECDDAATYYCAARYSGDIYTFGGGTEVVVR | 
 |  |  | RAMP3-rIgG-k1-3A5 (antibody, V domains shown, tested as recombinant rabbit IgG-kappa1; also called rlgG-k1-3A5; 3A5_#15) VH: QSLEESGGGLVQPEGTLTLTCTVSGFSFSSNYWICWVRQAPGKGLEWIACIVTNSGTTYYTSWAKGRLTLSKTSSTTVTLQMTSLTAADTATYFCARDNNSVTGVEFNLWGPGTLVTVSS VL: DVVMTQTPASVSAAVGATVTIKCQASETIGNNLAWYQQKPGQPPKVLMFLASTLASGVPSRFKGSRSGTEYTLTISGVQCDDAATYYCQSYLGTSYAFGGGTEVVVK | binding result (RAMP3_Scr_V1 [3]): binds
